The target in experiment [1] is IGF-1R on human cancer cell lines (human) (UniProt P08069). In words: cell-based or functional assay.
For experiment [2] the target is unchanged. The experiment in a line: 125I-IGF-1 binding to MCF-7L cells; antibody at 100 ng/mL.
Experiment [3] shares this target. In words: 125I-IGF-1 binding to MCF-7L cells; antibody at 1000 ng/mL.
Experiment [4] addresses IGF-1R and EGP-1 together on MCF-7, DU145 or ME-180 cells (human) (UniProt P08069). The experiment in a line: flow cytometry (FACScan), ME-180 cells; control.
The target is the same in experiment [5]. In words: flow cytometry (FACScan), MCF-7 cells; control. For orientation: A flow cytometer gives signals particle by particle.
For experiment [6] the target is unchanged. In words: flow cytometry (FACScan), DU145 cells; control.

From US20150024459A1 come the findings set out here.

Consider MAB391 (antibody), for which, in experiment [1], the maximum growth inhibition, 786-O cells, serum-free with IGF-1 100 ng/mL, MTS, antibody 8 nM turned out to be 34%; the maximum growth inhibition, ACHN cells, serum-free with IGF-1 100 ng/mL, MTS, antibody 200 nM was 48%; the maximum growth inhibition, Caki-2 cells, serum-free with IGF-1 100 ng/mL, MTS, antibody 8 nM amounted to 50%. The % binding of 125I-IGF-1 in the presence of the antibody in experiment [2] was found to be 54%. Also, the % binding of 125I-IGF-1 in the presence of the antibody in experiment [3] was 38%.

In the case of human IgG (antibody), the figures for the % Positive in experiment [4], in experiment [5] and in experiment [6] were 1.37%, 2.34% and 1.44%, respectively. In addition, the MFI in experiment [4] was found to be 1.8; in experiment [5], 1.84; in experiment [6], 2.21.
